Reference: patent US20180291101A1 (published 2018)
Positions count from the first letter of the chain named. One block for each molecule: values may come before it.

What was measured:
[1] = molecular target: monomeric His-tagged human FcRn (hFcRn) (JTA) (human) (UniProt P55899); assay: SPR, IgG amine-coupled, hFcRn (JTA) injected, 1:1 fit, pH 6.0
[2] = molecular target: monomeric His-tagged human FcRn (hFcRn) (JTA) (human) (UniProt P55899); assay: SPR, IgG amine-coupled, hFcRn (JTA) injected, pH 6.0; first value of the cell (kinetic fit)
[3] = molecular target: monomeric His-tagged human FcRn (hFcRn) (JTA) (human) (UniProt P55899); assay: SPR, IgG amine-coupled, hFcRn (JTA) injected, pH 6.0; second value of the cell (steady-state affinity model)
[4] = molecular target: hFcRn in hFcRn TG mice (human FCGRT transgene) (human, UniProt P55899 24-365); assay: cell-based or functional assay
hFcRn in hFcRn TG mice (human FCGRT transgene), sequence (P55899 24-365): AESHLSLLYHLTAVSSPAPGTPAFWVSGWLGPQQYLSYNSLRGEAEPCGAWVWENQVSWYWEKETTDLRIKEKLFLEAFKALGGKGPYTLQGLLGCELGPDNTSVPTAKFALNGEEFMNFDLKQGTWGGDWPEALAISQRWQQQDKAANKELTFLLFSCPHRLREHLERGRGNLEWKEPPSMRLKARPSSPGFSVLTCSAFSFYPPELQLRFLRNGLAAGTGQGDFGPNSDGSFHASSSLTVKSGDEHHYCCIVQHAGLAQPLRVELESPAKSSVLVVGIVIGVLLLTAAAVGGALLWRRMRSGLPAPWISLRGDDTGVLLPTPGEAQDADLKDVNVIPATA

[5] = molecular target: T1, recombinant human FcRn (Sino Biological Inc. Cat. No. CT009-H08H) (human, UniProt P55899 24-297; P61769 21-119); assay: competition ELISA vs biotinylated human serum IgG, pH 6.0
T1 construct: Bought protein; also called hFcRn (SINO); immobilized FcRn

[6] = molecular target: T1, recombinant human FcRn (Sino Biological …); assay: competition ELISA vs biotinylated parent murine antibody, pH 6.0
[7] = molecular target: T1, recombinant human FcRn (Sino Biological …); assay: competition ELISA vs biotinylated parent murine antibody, pH 7.4

- koff [1]: 0.0824 s⁻¹
- kon [1]: 108000 M⁻¹ s⁻¹
- Kd [2]: 763 nM
- Kd [3]: 1250 nM
Molecule: human IgG1 (hIgG1) (antibody)

- Kd [2]: 1010 nM
- Kd [3]: 970 nM
Molecule: human IgG4 (hIgG4) (antibody)

- plasma concentration of HuLys11 (human IgG1) in hFcRn TG mice after 20 mg/kg [4]: 3 fold reduction
B1: H3Vκ2 (H3VH1_Vκ2) IgG4 (antibody, V domains shown)
VH: QVQLVQSGAELKKPGASVKLSCKASGYTFTSYGISWVKQATGQGLEWIGEIYPRSGNTYYNEKFKGRATLTADKSTSTAYMELRSLRSEDSAVYFCARSTTVRPPGIWGTGTTVTVSS
VL: DIQMTQSPSSLSASVGDRVTITCKASDHINNWLAWYQQKPGQAPRLLISGATSLETGVPSRFSGSGTGKDYTLTISSLQPEDFATYYCQQYWSTPYTFGGGTKVEIK

- average relative IC50 (normalized to parent murine antibody) [5]: 0.53 ratio
- average relative IC50 (normalized to chimeric parent murine antibody) [6]: 0.87 ratio
- average relative IC50 (normalized to chimeric parent murine antibody) [7]: 0.89 ratio
B2: VH1_A8/Vκ1 IgG4 (antibody, V domains shown)
VH: B1 VH with R87K, R103S, G106A, I107H
VL: B1 VL with S10Y, P80T
notes: IgG4
